Reference: the supplement of paper PMC5998384

Experiments:
[1] = test system: HeLa Kyoto; assay: solubility change mitosis vs G1/S (difference of NP-40 vs SDS log2 ratios) (log2 ratio difference); higher = more soluble in mitosis
[2] = test system: HeLa Kyoto; assay: thermal stability score vs G1/S (z-score of summed log2 fold changes over temperatures); higher = more thermally stable than in G1/S
[3] = test system: HeLa Kyoto; assay: melting temperature (median over replicates), in situ; higher = more thermally stable
[4] = test system: HeLa Kyoto; assay: solubility in G1/S (NP-40 vs SDS abundance) (log2 ratio); higher = more soluble; conditions: cell cycle stage: G1/S
[5] = cell cycle stage: early G1 (4.5 h after nocodazole release)
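For melting temperature (median over replicates), in situ in this document: HeLa Kyoto cells synchronized by double thymidine or nocodazole block, proteins quantified by TMT10plex mass spectrometry, three independent biological replicates.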
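For solubility change mitosis vs G1/S (difference of NP-40 vs SDS log2 ratios) in this document: synchronized HeLa Kyoto cells (double thymidine block for G1/S, nocodazole release for mitosis), protein amounts in NP-40 versus SDS lysates quantified by mass spectrometry, three biological replicates.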
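For solubility in G1/S (NP-40 vs SDS abundance) in this document: HeLa Kyoto cells arrested at G1/S by double thymidine block, proteins quantified by TMT10plex mass spectrometry in mild NP-40 versus SDS extracts, three biological replicates.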
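For thermal stability score vs G1/S (z-score of summed log2 fold changes over temperatures) in this document: synchronized HeLa Kyoto cells, proteins quantified by TMT10plex mass spectrometry, three biological replicates, mitosis taken 0.5 h after nocodazole release, G1/S directly after double thymidine block.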

Chain of STRIP1 (chain, as listed by the source): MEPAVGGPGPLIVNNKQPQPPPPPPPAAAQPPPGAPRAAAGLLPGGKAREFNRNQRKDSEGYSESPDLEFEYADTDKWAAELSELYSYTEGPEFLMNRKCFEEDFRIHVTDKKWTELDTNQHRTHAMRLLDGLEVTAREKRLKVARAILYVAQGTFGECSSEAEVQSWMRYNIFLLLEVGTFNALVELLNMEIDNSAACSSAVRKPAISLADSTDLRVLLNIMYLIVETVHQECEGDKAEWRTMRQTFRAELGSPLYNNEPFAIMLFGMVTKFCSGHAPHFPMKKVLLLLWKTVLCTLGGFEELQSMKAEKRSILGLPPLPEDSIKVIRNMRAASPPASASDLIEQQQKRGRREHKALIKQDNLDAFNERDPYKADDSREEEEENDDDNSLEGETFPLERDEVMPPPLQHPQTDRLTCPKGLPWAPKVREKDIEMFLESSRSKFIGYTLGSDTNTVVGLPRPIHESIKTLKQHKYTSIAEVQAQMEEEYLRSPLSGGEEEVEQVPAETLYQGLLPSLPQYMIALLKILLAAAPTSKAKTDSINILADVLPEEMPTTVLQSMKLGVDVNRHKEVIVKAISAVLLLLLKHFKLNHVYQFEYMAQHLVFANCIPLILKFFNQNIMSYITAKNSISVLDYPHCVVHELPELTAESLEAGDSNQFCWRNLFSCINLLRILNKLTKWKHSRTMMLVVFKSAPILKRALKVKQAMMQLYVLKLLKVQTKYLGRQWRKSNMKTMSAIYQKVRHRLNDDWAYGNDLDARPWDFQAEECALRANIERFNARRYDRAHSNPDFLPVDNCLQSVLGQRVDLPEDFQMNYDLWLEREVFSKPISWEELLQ
Chain of GFM1 (chain, as listed by the source): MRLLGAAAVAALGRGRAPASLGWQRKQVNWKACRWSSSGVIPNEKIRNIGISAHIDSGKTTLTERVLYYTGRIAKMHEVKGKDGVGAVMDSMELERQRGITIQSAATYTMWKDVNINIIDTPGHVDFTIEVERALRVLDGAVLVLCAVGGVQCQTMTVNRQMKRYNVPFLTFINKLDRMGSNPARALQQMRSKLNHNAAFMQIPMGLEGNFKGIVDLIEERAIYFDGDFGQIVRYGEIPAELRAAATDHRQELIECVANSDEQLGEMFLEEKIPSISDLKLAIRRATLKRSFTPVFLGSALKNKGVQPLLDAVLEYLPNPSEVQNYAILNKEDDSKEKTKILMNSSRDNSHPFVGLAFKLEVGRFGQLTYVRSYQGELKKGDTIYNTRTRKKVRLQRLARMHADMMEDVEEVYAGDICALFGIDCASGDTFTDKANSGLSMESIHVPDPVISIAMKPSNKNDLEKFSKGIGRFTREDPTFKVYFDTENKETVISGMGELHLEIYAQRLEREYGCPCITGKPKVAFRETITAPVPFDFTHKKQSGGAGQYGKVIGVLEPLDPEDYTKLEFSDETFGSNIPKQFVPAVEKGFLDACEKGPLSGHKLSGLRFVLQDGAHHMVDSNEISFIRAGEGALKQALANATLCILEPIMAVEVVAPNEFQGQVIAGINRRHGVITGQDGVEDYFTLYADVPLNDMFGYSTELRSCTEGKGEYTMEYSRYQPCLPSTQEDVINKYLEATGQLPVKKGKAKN

Substance	solubility change mitosis (log2) [1]	thermal stability score [2, 5]	thermal stability score ([2]; cell cycle stage: mitosis)	melting temperature ([3]; cell cycle stage: G1/S)	melting temperature ([3]; cell cycle stage: mitosis)	solubility in G1/S (log2) [4]
MALHSMRKARERWSFIRALHKGSAAAPALQKDSKKRVFSGIQPTGILHLGNYLGAIESWVRLQDEYDSVLYSIVDLHSITVPQDPAVLRQSILDMTAVLLACGINPEKSILFQQSQVSEHTQLSWILSCMVRLPRLQHLHQWKAKTTKQKHDGTVGLLTYPVLQAADILLYKSTHVPVGEDQVQHMELVQDLAQGFNKKYGEFFPVPESILTSMKKVKSLRDPSAKMSKSDPDKLATVRITDSPEEIVQKFRKAVTDFTSEVTYDPAGRAGVSNIVAVHAAVTGLSVEEVVRRSAGMNTARYKLAVADAVIEKFAPIKREIEKLKLDKDHLEKVLQIGSAKAKELAYTVCQEVKKLVGFL [WARS2]	-0.0372	0.66	0.794	48.7 °C	49.2 °C	0.308
MFGTLLLYCFFLATVPALAETGGERQLSPEKSEIWGPGLKADVVLPARYFYIQAVDTSGNKFTSSPGEKVFQVKVSAPEEQFTRVGVQVLDRKDGSFIVRYRMYASYKNLKVEIKFQGQHVAKSPYILKGPVYHENCDCPLQDSAAWLREMNCPETIAQIQRDLAHFPAVDPEKIAVEIPKRFGQRQSLCHYTLKDNKVYIKTHGEHVGFRIFMDAILLSLTRKVKMPDVELFVNLGDWPLEKKKSNSNIHPIFSWCGSTDSKDIVMPTYDLTDSVLETMGRVSLDMMSVQANTGPPWESKNSTAVWRGRDSRKERLELVKLSRKHPELIDAAFTNFFFFKHDENLYGPIVKHISFFDFFKHKYQINIDGTVAAYRLPYLLVGDSVVLKQDSIYYEHFYNELQPWKHYIPVKSNLSDLLEKLKWAKDHDEEAKKIAKAGQEFARNNLMGDDIFCYYFKLFQEYANLQVSEPQIREGMKRVEPQTEDDLFPCTCHRKKTKDEL [KDELC1]	-0.102	2.25	2.83	53.5 °C	54 °C	0.0317
MAPDPVAAETAAQGPTPRYFTWDEVAQRSGCEERWLVIDRKVYNISEFTRRHPGGSRVISHYAGQDATDPFVAFHINKGLVKKYMNSLLIGELSPEQPSFEPTKNKELTDEFRELRATVERMGLMKANHVFFLLYLLHILLLDGAAWLTLWVFGTSFLPFLLCAVLLSAVQAQAGWLQHDFGHLSVFSTSKWNHLLHHFVIGHLKGAPASWWNHMHFQHHAKPNCFRKDPDINMHPFFFALGKILSVELGKQKKKYMPYNHQHKYFFLIGPPALLPLYFQWYIFYFVIQRKKWVDLAWMITFYVRFFLTYVPLLGLKAFLGLFFIVRFLESNWFVWVTQMNHIPMHIDHDRNMDWVSTQLQATCNVHKSAFNDWFSGHLNFQIEHHLFPTMPRHNYHKVAPLVQSLCAKHGIEYQSKPLLSAFADIIHSLKESGQLWLDAYLHQ [FADS1]	-0.092	-0.752	-0.737	51.9 °C	51.3 °C	-0.124
MGDKIWLPFPVLLLAALPPVLLPGAAGFTPSLDSDFTFTLPAGQKECFYQPMPLKASLEIEYQVLDGAGLDIDFHLASPEGKTLVFEQRKSDGVHTVETEVGDYMFCFDNTFSTISEKVIFFELILDNMGEQAQEQEDWKKYITGTDILDMKLEDILESINSIKSRLSKSGHIQTLLRAFEARDRNIQESNFDRVNFWSMVNLVVMVVVSAIQVYMLKSLFEDKRKSRT [TMED5]	-0.206	2.08	1.93	54.2 °C	55.5 °C	0.107
STRIP1	-0.214	0.575	0.412	51.3 °C	49.6 °C	0.0221
GFM1	-0.108	-0.899	0.337	50.3 °C	50.5 °C	0.0415
MLSEVLLVSAPGKVILHGEHAVVHGKVALAVSLNLRTFLRLQPHSNGKVDLSLPNIGIKRAWDVARLQSLDTSFLEQGDVTTPTSEQVEKLKEVAGLPDDCAVTERLAVLAFLYLYLSICRKQRALPSLDIVVWSELPPGAGLGSSAAYSVCLAAALLTVCEEIPNPLKDGDCVNRWTKEDLELINKWAFQGERMIHGNPSGVDNAVSTWGGALRYHQGKISSLKRSPALQILLTNTKVPRNTRALVAGVRNRLLKFPEIVAPLLTSIDAISLECERVLGEMGEAPAPEQYLVLEELIDMNQHHLNALGVGHASLDQLCQVTRARGLHSKLTGAGGGGCGITLLKPGLEQPEVEATKQALTSCGFDCLETSIGAPGVSIHSATSLDSRVQQALDGL [MVK]	0.006	-0.0917	0.34	53.8 °C	54.3 °C	0.173
